What was measured:
PALB2 = molecular target: T1, PALB2 (UniProt Q86YC2 1-1186); experiment: EMSA
T1 sequence: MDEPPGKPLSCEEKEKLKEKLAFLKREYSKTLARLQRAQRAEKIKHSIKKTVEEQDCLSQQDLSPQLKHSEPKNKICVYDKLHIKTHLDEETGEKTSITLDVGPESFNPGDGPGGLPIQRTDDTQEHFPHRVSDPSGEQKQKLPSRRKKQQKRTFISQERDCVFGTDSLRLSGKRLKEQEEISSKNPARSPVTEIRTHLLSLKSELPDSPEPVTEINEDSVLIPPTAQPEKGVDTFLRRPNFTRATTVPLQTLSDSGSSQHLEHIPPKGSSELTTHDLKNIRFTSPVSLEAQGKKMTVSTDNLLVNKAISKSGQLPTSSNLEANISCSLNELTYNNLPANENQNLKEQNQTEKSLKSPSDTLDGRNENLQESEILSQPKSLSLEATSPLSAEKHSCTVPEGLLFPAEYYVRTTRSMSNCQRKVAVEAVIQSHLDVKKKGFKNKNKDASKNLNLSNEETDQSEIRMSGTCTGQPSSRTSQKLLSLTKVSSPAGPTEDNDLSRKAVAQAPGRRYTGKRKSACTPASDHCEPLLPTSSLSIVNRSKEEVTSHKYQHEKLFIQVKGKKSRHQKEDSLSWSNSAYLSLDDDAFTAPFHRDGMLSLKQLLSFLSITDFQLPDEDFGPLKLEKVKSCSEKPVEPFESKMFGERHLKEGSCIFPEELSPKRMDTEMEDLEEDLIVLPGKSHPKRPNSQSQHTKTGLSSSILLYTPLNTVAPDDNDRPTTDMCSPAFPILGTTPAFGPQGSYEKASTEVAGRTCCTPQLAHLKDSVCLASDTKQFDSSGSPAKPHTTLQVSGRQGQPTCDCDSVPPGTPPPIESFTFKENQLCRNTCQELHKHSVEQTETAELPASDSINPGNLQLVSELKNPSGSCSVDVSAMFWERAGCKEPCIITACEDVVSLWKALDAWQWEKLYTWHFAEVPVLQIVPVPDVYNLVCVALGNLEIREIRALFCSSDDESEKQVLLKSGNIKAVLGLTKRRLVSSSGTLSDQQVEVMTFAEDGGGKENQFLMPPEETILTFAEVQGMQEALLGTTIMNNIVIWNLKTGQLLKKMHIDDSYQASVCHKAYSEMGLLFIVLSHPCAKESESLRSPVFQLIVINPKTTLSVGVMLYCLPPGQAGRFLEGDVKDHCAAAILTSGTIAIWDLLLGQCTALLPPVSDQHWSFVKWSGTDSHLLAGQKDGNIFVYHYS

PALB2Δ1-40 = molecular target: T2, PALB2Δ1-40 (UniProt Q86YC2 41-1186, del1-40); experiment: EMSA
T2 sequence: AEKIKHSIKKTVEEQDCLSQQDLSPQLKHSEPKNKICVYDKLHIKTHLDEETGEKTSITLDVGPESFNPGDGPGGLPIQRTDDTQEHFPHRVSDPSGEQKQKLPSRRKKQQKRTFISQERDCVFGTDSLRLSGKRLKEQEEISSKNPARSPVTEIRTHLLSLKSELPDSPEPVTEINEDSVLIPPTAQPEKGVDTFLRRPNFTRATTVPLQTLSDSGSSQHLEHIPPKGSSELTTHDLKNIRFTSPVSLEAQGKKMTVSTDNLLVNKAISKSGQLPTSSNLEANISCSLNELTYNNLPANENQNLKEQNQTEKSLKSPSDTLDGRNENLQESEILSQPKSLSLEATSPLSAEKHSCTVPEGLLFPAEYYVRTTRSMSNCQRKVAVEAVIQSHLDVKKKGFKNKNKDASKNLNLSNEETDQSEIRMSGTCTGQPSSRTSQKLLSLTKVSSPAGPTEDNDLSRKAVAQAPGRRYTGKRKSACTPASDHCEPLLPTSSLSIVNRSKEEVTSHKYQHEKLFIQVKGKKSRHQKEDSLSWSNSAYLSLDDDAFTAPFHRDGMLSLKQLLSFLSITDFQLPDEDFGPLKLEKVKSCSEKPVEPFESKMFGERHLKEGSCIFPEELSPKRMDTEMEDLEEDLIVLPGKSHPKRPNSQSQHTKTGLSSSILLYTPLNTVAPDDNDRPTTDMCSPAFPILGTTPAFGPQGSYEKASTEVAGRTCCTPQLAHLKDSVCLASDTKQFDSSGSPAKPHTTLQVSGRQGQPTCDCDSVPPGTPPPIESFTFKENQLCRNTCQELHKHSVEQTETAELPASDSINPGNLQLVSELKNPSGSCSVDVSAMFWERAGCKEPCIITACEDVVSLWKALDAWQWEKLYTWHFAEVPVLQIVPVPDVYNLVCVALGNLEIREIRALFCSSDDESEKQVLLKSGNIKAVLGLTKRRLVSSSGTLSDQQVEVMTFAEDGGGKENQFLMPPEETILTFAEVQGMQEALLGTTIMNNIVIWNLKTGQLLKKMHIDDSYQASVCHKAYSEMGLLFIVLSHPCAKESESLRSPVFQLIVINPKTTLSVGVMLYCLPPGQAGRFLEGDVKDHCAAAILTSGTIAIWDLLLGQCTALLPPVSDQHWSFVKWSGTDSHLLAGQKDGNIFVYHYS

B1: 60 nt ssDNA (ssDNA)
DNA: GGGTGAACCTGCAGGTGGGCAAAGATGTCCTAGCAATGTAATCGTCAAGCTTTATGCCGT
binding result (PALB2): binds
binding signal (PALB2Δ1-40): ~5 fold stronger affinity than PALB2

— PMC3488246
